One assay deals with T1, FcγRI (CD64) (UniProt P12314 16-374, limits assumed).
T1 construct: whole, on cells
The assay can be described thus: flow cytometry, CHO cells stably expressing CD64, fluorescent anti-human IgG secondary, MFI (mean). The text has this:
ALG.APV-210 contains mutations introduced to prevent interaction with Fcγ receptors (FcγR) that could lead to FcγR-mediated T-cell activation or ADCC, ADCP, CDC etc. Binding of ALG.APV-210 was therefore tested on CHO cell transfectants stably expressing the following FcγR: FcγRI (CD64), FcγRIIa (CD32a His131), FcγRIIb (CD32b), FcγRIIIa (CD16a Val158 and CD16a Phe158), and FcγRIIIb (CD16b). Untransfected CHO cells were used as negative control. A control human IgG1 molecule was used as a positive control. Different concentrations of ALG.APV-210 or control IgG1 were incubated with the FcγR-expressing cell lines, washed, and labeled with a secondary anti-human IgG reagent. Binding of ALG.APV-210 and the control IgG1 was detected by flow cytometry.

Assay [1] has as its target T2, human 5T4 on cells (human, UniProt Q13641 32-420).
T2 construct: also called TPBG; hu5T4
T2 sequence: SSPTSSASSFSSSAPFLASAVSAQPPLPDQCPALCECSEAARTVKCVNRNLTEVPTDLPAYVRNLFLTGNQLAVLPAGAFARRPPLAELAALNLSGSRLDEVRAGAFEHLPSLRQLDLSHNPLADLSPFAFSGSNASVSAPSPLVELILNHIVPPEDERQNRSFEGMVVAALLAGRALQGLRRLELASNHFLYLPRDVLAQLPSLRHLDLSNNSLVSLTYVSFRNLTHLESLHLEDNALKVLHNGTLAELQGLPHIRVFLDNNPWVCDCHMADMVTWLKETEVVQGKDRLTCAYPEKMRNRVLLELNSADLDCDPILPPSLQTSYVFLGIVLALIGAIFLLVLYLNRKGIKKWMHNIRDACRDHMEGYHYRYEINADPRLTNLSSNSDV
The assay can be described thus: flow cytometry, MDA.MB-231 cells, PE goat anti-human Fc. On the procedure: A 3-fold titration of ALG.APV-210 construct (ranging from 100 nM to 0.14 nM) was incubated with the human 5T4-expressing cell lines for 40 minutes in FACS buffer at 4° C., washed 3 times, and detected with PE-labeled, goat-anti-human Fc secondary antibody (Jackson ImmunoResearch). Binding of ALG.APV-210 was detected by flow cytometry. All samples were run in duplicates. Nonlinear regression analysis to determine EC₅₀ values was performed in GraphPad Prism 6® graphing and statistics software.
For orientation: In flow cytometry, cells or beads pass a laser one at a time.

Assay [2] concerns the target T2, human 5T4 on cells. As to the kind of experiment: flow cytometry, HCT-116 cells, streptavidin-PE, normalized MFI of 2 pooled experiments; HCT-116 cells. As to the method: (§1) Prior to the FACS staining, all cell lines were characterized for their 5T4 expression levels using a receptor density kit (Quantum Simply Cellular, anti-human IgG, Bangs Laboratories, Inc). Adherent cell lines were cultured according to their supplier's instructions and were harvested from their cell culture flasks using Trypsin/EDTA, counted in R10 medium in a Burker chamber, and diluted in FACS buffer (PBS+0.5% BSA, 0.05% NaN₃) to a concentration of 4×10⁶ cells/mL. 50 μL (0.20×10⁶) of cell solution was added to a 96-well FACS staining plate (Falcon #351190). Cells were incubated for 20 min in 4° C. with 50 μL of the biotinylated ALG.APV-210 (2× final concentration). The antibodies were added in a serial dilution starting at 20 μg/mL titrating down in a 12 step ½ dilution down to 0.010 μg/mL. Following 2× washing with FACS buffer, cells were incubated for 30 min in 4° C. with 100 μL of a secondary antibody (streptavidin-PE, BD #554061, diluted 1/500). […] Cells were analysed for ALG.APV-210 binding using flow cytometry (FACSVerse) by gating on single cells. MFI values (secondary antibody only subtracted) from 1 out of 2 independent experiments, as well as normalized data and EC₅₀-values of pooled data from 2 experiments were determined and plotted using GraphPad Prism 7, non-linear regression log (agonist) vs. normalized response—variable slope.

The target in assay [3] is T2, human 5T4 on cells. As to the kind of experiment: flow cytometry, BxPC-3 cells, streptavidin-PE, normalized MFI of 2 pooled experiments. As to the method:
as §1

Assay [4] has as its target T2, human 5T4 on cells. The assay can be described thus: flow cytometry, HT29 cells (endogenous human 5T4), biotinylated ALG.APV-210 + streptavidin-PE, 1 of 2 experiments. As to the method:
as §1, with “μg/mL.” for “μg/mL. Following 2× washing with FACS buffer, cells were incubated for 30 min in 4° C. with 100 μL of a secondary antibody (streptavidin-PE, BD #554061, diluted 1/500).”
The binding (EC₅₀) of the biotinylated ALG.APV-210 to 5T4 when expressed on cells, either at endogenous levels on human tumor cells or on cells transfected to express 5T4 was assessed. […]

T1 sequence (P12314 16-374 limits assumed): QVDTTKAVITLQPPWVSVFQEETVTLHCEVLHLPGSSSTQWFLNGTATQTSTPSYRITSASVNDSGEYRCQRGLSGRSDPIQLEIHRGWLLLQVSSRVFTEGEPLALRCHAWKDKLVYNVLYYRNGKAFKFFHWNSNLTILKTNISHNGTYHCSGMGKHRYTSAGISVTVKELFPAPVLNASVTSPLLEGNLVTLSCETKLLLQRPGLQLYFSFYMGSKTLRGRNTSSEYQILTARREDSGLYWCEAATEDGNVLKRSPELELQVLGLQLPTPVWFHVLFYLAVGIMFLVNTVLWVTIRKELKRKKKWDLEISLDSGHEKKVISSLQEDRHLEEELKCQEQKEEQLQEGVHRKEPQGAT

B1: ALG.APV-210 (bispecific antibody)
chain: EVQLLESGGGLVQPGGSLRLSCAASGFTFSHGSMYWVRQAPGKGLEWVSSISSGSGSTYYADSVKGRFTISHDNSKNTLYLQMNSLRAEDTAVYYCARSSYYGSYYSIDYWGQGTLVTVSSGGGGSGGGGSGGGGSGGGGSDIQMTQSPSSLSASVGDRVTITCRASQSISSYLNWYQQKPGKAPKLLIYAASSLQSGVPSRFSGSGSGTDFTLTISSLQPEDFATYYCQQYYDNLPTFGQGTKLEIKEPKSSDKTHTCPPCPAPEAAGAPSVFLFPPKPKDTLMISRTPEVTCVVVDVSHEDPEVKFNWYVDGVEVHNAKTKPREEQYNSTYRVVSVLTVLHQDWLNGKEYKCAVSNKALPAPIEKTISKAKGQPREPQVYTLPPSRDELTKNQVSLTCLVKGFYPSDIAVEWESNGQPENNYKTTPPVLDSDGSFFLYSKLTVDKSRWQQGNVFSCSVMHEALHNHYTQKSLSLSPGSGGGGSGGGGSGGGGSPSEVQLLESGGGLVQPGGSLRLSCAASGFTFSSYAMSWVRQAPGKCLEWVSAISGSGGSTYYADSVKGRFTISRDNSKNTLYLQMNSLRAEDTAVYYCARYYGGYYSAWMDYWGQGTLVTVSSGGGGSGGGGSGGGGSGGGGSDIQMTQSPSSLSASVGDRVTITCRASQSISSFLNWYQQKPGKAPKLLIYAASSLQSGVPSRFSGSGSGTDFTLTISSLQPEDSATYYCQQTYGYLHTFGCGTKLEIKR
notes: Optimized ADAPTIR scFv-Fc-scFv homodimer with stabilizing disulfide in the 1210 scFv; also called 5T4-CD137 bispecific antibody
Take B1: in the assay with FcγRI (CD64), the binding result is reported as “no binding (tested: 1000 nM)”. The EC50 (commonly the concentration giving half of the maximal effect) with human 5T4 on cells [1] was determined as 0.021 µM.

B2: biotinylated ALG.APV-210 (bispecific antibody)
chain: B1 chain
notes: also called ALG.APV-210 (biotinylated for FACS detection)
For B2, the half-maximal effective concentration (EC50) with human 5T4 on cells [2] amounted to 0.016 µM; with human 5T4 on cells [3] it was 0.02 µM. For the same molecule, in the assay with human 5T4 on cells [4], the concentration for a half-maximal effect (EC50 (read off the curve)) (usually the midpoint of the concentration-response curve) is about 0.01 µM.

The values above are taken from patent US20190016816A1 (APTEVO RESEARCH AND DEVELOPMENT, published 2019).
